Reference: US20020115613A1, “Treatment of prostate cancer” (priority 2001, published 2002)

How the values were obtained:
[1] = system: LNCaP C4-2 cells; test: MTT assay (cell survival); type: cell-based; details: for cell survival: 400 ng/ml TRAIL and/or 10 μM Mifepristone for three days, FIG. 1B
Procedure: (§1) LNCaP were obtained from American Type Culture Collection (Rockville, Md.) and LNCaP C4-2 cells were purchased from Urocor Inc., Oklahoma City, Okla. Cells were grown in RPMI 1640 medium supplemented with 10% (LNCaP) or 5% (LNCaP C4-2) fetal bovine serum (Hyclone, Logan, Utah) and grown in the presence of 5% CO2 at 37° C. Cells were treated with 10 μM Mifepristone (Sigma, St. Louis, Mo.) for three days or with increasing concentrations (from 200 ng/ml to 600 ng/ml) of TRAIL (Biomol Research Laboratories, Inc., Plymouth Meetings, Pa.) for varying time intervals 2, 4, 6, 8, 16, 20 and 24 hours (hr). Thus, for treatment with Mifepristone, cells were treated with Mifepristone for three days and then some cells treated (without washing) with TRAIL for indicated periods. Upon completion of the experiment, cells were harvested, and total proteins, cytosol or mitochondrial fractions were isolated as described below. At least three experiments were conducted with a minimum of four plates per treatment per experiment. Two methods were used to measure induction of apoptosis by drug treatment: the MTT assay and the Apoptosense assay. The MTT assay measures mitochondrial enzyme activity and is indicative of the number of surviving cells. […] Cells were seeded in 96-well plates (6000 cells/well) and treatment was started 24 hr after seeding the cells. After completion of the treatment, cells were incubated at 37° C. with the MTT reagent for 3 hr and processed according to manufacturers instructions (Promega Corporation, Madison, Wis.). Color development was measured at 490 nm on a Spectra MAX 340 microplate reader (Molecular Devices, Menlo Park, Calif.).

[2] = system: LNCaP cells; test: MTT assay (cell survival); type: cell-based; details: for cell survival: 400 ng/ml TRAIL and/or 10 μM Mifepristone for three days, FIG. 1A
Procedure: as §1

[3] = system: LNCaP cells; test: Apoptosense assay (M30 ELISA, cleaved cytokeratin 18); type: cell-based
Procedure: LNCaP were obtained from American Type Culture Collection (Rockville, Md.) and LNCaP C4-2 cells were purchased from Urocor Inc., Oklahoma City, Okla. Cells were grown in RPMI 1640 medium supplemented with 10% (LNCaP) or 5% (LNCaP C4-2) fetal bovine serum (Hyclone, Logan, Utah) and grown in the presence of 5% CO2 at 37° C. Cells were treated with 10 μM Mifepristone (Sigma, St. Louis, Mo.) for three days or with increasing concentrations (from 200 ng/ml to 600 ng/ml) of TRAIL (Biomol Research Laboratories, Inc., Plymouth Meetings, Pa.) for varying time intervals 2, 4, 6, 8, 16, 20 and 24 hours (hr). Thus, for treatment with Mifepristone, cells were treated with Mifepristone for three days and then some cells treated (without washing) with TRAIL for indicated periods. Upon completion of the experiment, cells were harvested, and total proteins, cytosol or mitochondrial fractions were isolated as described below. At least three experiments were conducted with a minimum of four plates per treatment per experiment. Two methods were used to measure induction of apoptosis by drug treatment: the MTT assay and the Apoptosense assay. The MTT assay measures mitochondrial enzyme activity and is indicative of the number of surviving cells. […] Cells were plated in petri dishes and after completion of the treatment, cells were harvested and total protein extracted as described below. […] Color was developed by adding tetramethylbenzidine solution and the optical density of the bound antibody was determined at 450 nm on a Spectra MAX 340 microplate reader (Molecular Devices, Menlo Park, Calif.). Standard solution supplied by the supplier was used for generating standard curves.

[4] = system: LNCaP C4-2 cells; test: Caspase-9 colorimetric activity assay; type: cell-based; details: FIG. 4B
Procedure: (§2) LNCaP were obtained from American Type Culture Collection (Rockville, Md.) and LNCaP C4-2 cells were purchased from Urocor Inc., Oklahoma City, Okla. Cells were grown in RPMI 1640 medium supplemented with 10% (LNCaP) or 5% (LNCaP C4-2) fetal bovine serum (Hyclone, Logan, Utah) and grown in the presence of 5% CO2 at 37° C. Cells were treated with 10 μM Mifepristone (Sigma, St. Louis, Mo.) for three days or with increasing concentrations (from 200 ng/ml to 600 ng/ml) of TRAIL (Biomol Research Laboratories, Inc., Plymouth Meetings, Pa.) for varying time intervals 2, 4, 6, 8, 16, 20 and 24 hours (hr). Thus, for treatment with Mifepristone, cells were treated with Mifepristone for three days and then some cells treated (without washing) with TRAIL for indicated periods. Upon completion of the experiment, cells were harvested, and total proteins, cytosol or mitochondrial fractions were isolated as described below. At least three experiments were conducted with a minimum of four plates per treatment per experiment. As caspase-9 is a key protein in the formation of apoptosome, assays were performed to determine the activity of caspase-9. Caspase-9 activity was assayed using a colorimetric substrate, […] with a kit from Chemicon International, Inc. (Temecula, Calif.). Cleavage of the C-terminal peptide bond by the enzyme released p-nitroaniline, which was measured at 405 nm. Pure recombinant human caspase-9 was utilized as a positive control.

[5] = system: LNCaP cells; test: Caspase-9 colorimetric activity assay; type: cell-based; details: FIG. 4A
Procedure: as §2

[6] = system: prostate cancer cells; details: cited from earlier work
[7] = system: PC3AR cells; test: Induction of apoptosis / cell survival (FIG. 1E, 6A); type: cell-based
Procedure: PC3AR cells are a clonal cell line derived by stable transfection of PC3 with a full-length human AR cDNA (Dai, J. L., et al., Steroids, 61, 531-539, 1996). PC3Neo cells were stably transfected with neomycin vector alone. Cells were grown in RPMI 1640 with 5% FBS (Hyclone, Logan, Utah), 100 units/ml penicillin, 100 μg/ml streptomycin, 0.25 μg/ml fungizone and G418 (350 μg/ml) to select for neomycin-resistant cells. In experiments using antiandrogens, cells were maintained in 5% DCC stripped serum for at least 48 hr before treatment with hydroxyflutamide (Sigma Chemical Co., St. Louis, Mo.). The medium and all the drugs were replaced every two days. Cells were treated with 200 ng/ml, 400 ng/ml or 600 ng/ml of TRAIL (Biomol Research Laboratories, Inc, Plymouth Meeting, Pa.) for 2, 4, 6, 8, 16 and 20 hr. Cells were treated with 5 μM hydroxyflutamide for 5 days before the commencement of treatment with 400 ng/ml TRAIL.
Two methods were used to measure induction of apoptosis by drug treatment: the MTT assay and the Apoptosense assay. The MTT assay measures mitochondrial enzyme activity and is indicative of the number of surviving cells. The Apoptosense assay is an ELISA, which utilizes M30 antibody to recognize the C-terminal domain (amino acids 387-396) of cytokeratin 18 that is exposed in apoptotic cells after cleavage by caspases.

[8] = system: LNCaP C4-2 cells; test: Western blotting of death receptors, caspases, Bid, cytochrome c, Akt; type: cell-based; details: 15 min, FIG. 8
[9] = 200 ng/ml TRAIL compared with 400 ng/ml, data not shown
[10] = 600 ng/ml TRAIL compared with 400 ng/ml, data not shown

CC#C[C@]1(O)CC[C@H]2[C@@H]3CCC4=CC(=O)CCC4=C3[C@@H](c3ccc(N(C)C)cc3)C[C@@]21C [Mifepristone]
cell survival [1]: little effect on survival
cell survival [2]: little effect on survival
M30 activity (in words) [3]: lower M30 activity
caspase-9 activity [4]: induced caspase-9 activity
caspase-9 activity [5]: induced caspase-9 activity
ability to induce apoptosis in prostate cancer cells (Sridhar et al., 2001) [6]: marginal ability to induce apoptosis

B1: Tumor necrosis factor α—Related Apoptosis Inducing Ligand (protein, UniProt P50591 1-281, looked up)
Tumor necrosis factor ligand …: MAMMEVQGGPSLGQTCVLIVIFTVLLQSLCVAVTYVYFTNELKQMQDKYSKSGIACFLKEDDSYWDPNDEESMNSPCWQVKWQLRQLVRKMILRTSEETISTVQEKQQNISPLVRERGPQRVAAHITGTRGRSNTLSSPNSKNEKALGRKINSWESSRSGHSFLSNLHLRNGELVIHEKGFYYIYSQTYFRFQEEIKENTKNDKQMVQYIYKYTSYPDPILLMKSARNSCWSKDAEYGLYSIYQGGIFELKENDRIFVSVTNEHLIDMDHEASFFGAFLVG
notes: 281 amino acid type II transmembrane protein of the tumor necrosis factor α family; purchased from Biomol
cell death at lower concentration of TRAIL [1, 9]: lower cell death
cell survival [1]: reduced cell survival as early as 8 hr
apoptosis at higher dose of TRAIL [1, 10]: did not increase apoptosis significantly
cell death at lower concentration of TRAIL [2, 9]: lower cell death
cell survival [2]: did not alter cell survival significantly
apoptosis at higher dose of TRAIL [2, 10]: did not increase apoptosis significantly
apoptotic response at 200 ng/ml ([7]; 200 ng/ml TRAIL): lower response
apoptosis ([7]; 400 ng/ml TRAIL, by 20 hr, FIG. 1E): ~41%
apoptosis at higher dose ([7]; 600 ng/ml TRAIL): did not significantly increase apoptosis
caspase-9 activity [4]: induced caspase-9 activity
caspase-9 activity [5]: induced caspase-9 activity
phosphorylated Akt [8]: slightly decreased phosphorylated Akt
